Source: patent publication US20030194400

Target: Fn-TF:Factor VIIa complex (UniProt P08709)
Sequence (chain, as listed by the source, chain 1 of 2): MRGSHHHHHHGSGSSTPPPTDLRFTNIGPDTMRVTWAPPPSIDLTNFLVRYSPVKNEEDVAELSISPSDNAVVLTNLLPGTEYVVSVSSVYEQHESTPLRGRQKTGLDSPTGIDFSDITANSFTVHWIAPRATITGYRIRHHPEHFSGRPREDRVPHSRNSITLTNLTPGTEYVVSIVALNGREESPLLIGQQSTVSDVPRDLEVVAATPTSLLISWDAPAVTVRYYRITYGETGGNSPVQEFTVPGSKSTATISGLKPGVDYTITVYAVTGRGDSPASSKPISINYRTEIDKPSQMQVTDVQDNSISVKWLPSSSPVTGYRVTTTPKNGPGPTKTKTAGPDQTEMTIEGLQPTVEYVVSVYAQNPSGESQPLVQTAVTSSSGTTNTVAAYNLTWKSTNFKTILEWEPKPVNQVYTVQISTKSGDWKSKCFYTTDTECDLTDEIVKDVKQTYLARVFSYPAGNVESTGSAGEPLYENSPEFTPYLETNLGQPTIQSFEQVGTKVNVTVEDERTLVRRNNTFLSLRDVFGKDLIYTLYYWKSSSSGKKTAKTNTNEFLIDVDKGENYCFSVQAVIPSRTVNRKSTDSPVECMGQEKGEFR
Sequence (P08709 61-466, chain 2 of 2): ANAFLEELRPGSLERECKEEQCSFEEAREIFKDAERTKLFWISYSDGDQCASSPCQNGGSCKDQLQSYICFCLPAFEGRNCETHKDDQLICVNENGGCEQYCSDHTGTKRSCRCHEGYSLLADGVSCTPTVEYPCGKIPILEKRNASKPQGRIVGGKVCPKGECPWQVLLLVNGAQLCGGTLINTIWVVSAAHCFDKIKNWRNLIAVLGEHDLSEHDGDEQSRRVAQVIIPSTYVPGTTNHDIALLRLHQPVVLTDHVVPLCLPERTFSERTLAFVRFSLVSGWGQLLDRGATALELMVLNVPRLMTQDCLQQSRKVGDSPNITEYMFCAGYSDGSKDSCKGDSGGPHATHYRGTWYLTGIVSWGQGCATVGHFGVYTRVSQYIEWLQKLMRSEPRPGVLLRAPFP

Chain of Factor X (chain): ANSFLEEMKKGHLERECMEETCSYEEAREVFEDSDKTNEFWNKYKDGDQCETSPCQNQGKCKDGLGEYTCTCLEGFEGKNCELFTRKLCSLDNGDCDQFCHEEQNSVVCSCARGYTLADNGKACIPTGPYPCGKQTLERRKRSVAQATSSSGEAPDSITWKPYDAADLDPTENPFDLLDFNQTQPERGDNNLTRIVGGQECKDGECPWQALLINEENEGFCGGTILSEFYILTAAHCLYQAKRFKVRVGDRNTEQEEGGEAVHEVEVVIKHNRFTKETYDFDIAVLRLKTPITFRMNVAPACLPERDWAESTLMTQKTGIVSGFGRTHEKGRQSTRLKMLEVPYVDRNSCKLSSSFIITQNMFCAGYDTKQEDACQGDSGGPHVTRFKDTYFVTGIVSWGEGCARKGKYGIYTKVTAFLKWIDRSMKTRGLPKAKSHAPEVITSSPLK

Substance: Factor X
- proteolytic activity toward Factor X (Factor Xa generation, Spectrozyme FXa): The increasing concentration of Fn-TF led to increased proteolytic activity similar to the curve obtained with TF1-218
